These results are taken from IntAct's records for PubMed 21408167.

First the molecules themselves.
B1: Death-associated protein kinase 2 (Homo sapiens), Q9UIK4-2 (parent)
chain: MFQASMRSPNMEPFKQQKVEDFYDIGEELGSGQFAIVKKCREKSTGLEYAAKFIKKRQSRASRRGVSREEIEREVSILRQVLHHNVITLHDVYENRTDVVLILELVSGGELFDFLAQKESLSEEEATSFIKQILDGVNYLHTKKIAHFDLKPENIMLLDKNIPIPHIKLIDFGLAHEIEDGVEFKNIFGTPEFVAPEIVNYEPLGLEADMWSIGVITYILLSGASPFLGDTKQETLANITAVSYDFDEEFFSQTSELAKDFIRKLLVKETRKRLTIQEALRHPWITSKGEGRAPEQRKTEPTQLKTKHLREYTLKCHSSMPPNNSYVNFERFACVVEDVARVDLGCRALVEAHDTIQDDVEALVSIFNEKEAWYREENESARHDLSQLRYEFRKVESLKKLLREDIQATGCSLGSMARKLDHLQAQFEILRQELSADLQWIQELVGSFQLESGSSEGLGSTFYQDTSESLSELLSRSCTEEFLAGWKL

The test covers variants of B1. The conditions noted are these: with atf4_human ATF4, P18848.
Chain of atf4_human ATF4, P18848 (P18848 whole entry): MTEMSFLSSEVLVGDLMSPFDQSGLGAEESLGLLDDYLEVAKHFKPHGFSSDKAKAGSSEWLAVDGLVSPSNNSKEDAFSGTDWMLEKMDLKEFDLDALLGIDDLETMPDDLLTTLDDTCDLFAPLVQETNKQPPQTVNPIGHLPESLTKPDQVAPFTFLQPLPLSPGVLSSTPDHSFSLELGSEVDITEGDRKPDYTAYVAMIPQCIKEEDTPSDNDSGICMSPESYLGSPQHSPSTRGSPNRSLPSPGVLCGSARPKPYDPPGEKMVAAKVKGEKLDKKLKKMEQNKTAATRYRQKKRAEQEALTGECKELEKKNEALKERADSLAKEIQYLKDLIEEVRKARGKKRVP
With L434A;I441A;F448A, the “effect of a mutation on the interaction” value is listed as “decreasing interaction”.
